The values below come from patent publication US20230405078A1, “DETECTION AND TREATMENT OF INTESTINAL FIBROSIS” (THE REGENTS OF THE UNIVERSITY OF CALIFORNIA, priority 2020, published 2023).

The test system of series [1] is Salmonella-infected mice. The experiment in a line: Salmonella-mediated cecal fibrosis in mice. The class given is in vivo. The conditions noted are these: Salmonella model. As to the method: Eight-week-old male and female 129Sv/J mice (#000691, Jackson Laboratories) were administered 20 mg streptomycin via oral gavage. Twenty-four hours later, the mice were orally infected with Salmonella typhimurium SL1344 strain 1×10^8 colony-forming units by oral gavage to induce cecal fibrosis.
Origene or miR205-5p-OFF lentivrus (mm35328) or miR205-5p-OE lentivirus (mm15214) from Applied Biological Materials on day 14. Some infected mice received oral antibiotics mixture in drinking water ad libitum from day 14 to day 21 to suppress intestinal microbiota. […]
H&E and Masson Trichrome (MT) staining were performed as described previously. Microphotographs were recorded at multiple locations and scored by two investigators blindly. Intestinal injuries were scored (0-12). The severity of intestinal fibrosis was assessed by MT staining and scored (0-3). […]
(§1) Total RNA was isolated by an RNeasy kit (#74104, Qiagen) and reverse transcribed into cDNA by a high-capacity cDNA reverse transcription kit (#4368813, ThermoFisher). […] Relative mRNA/miRNA quantification was performed by comparing test groups and control groups after normalization with endogenous control genes. The fold changes are expressed as 2^ΔΔCt. […]
Overall disease activity (ODA) was calculated by % change of histology and fibrosis scores and colonic mRNA expression of fibrosis- and inflammation-related genes. […]

The nature of series [2]: Basic pharmacokinetics of subcutaneous elafin in RD-treated male mice. It counts as in vivo. The following applies: natural elafin 1 mg/kg subcutaneous. As to the method: FIG. 36. Subcutaneous and oral administration of modified elafin inhibited hyperphagia and hyperglycemia in HFD-treated male mice. (A) Elafin (1 mg/kg) was injected into RD-treated male mice subcutaneously. Tail-vein blood samples were collected for elafin ELISA. This mouse experiment was intended for the determination of basic pharmacokinetics of elafin, but not the determination of physiology of elafin. (B) HFD-treated mice were treated with either oral gavage of Elafin-Eudragit formulation (10 mg/kg) daily or subcutaneous injection of PEG-elafin (3.25 mg/kg) every 48 h for 14 days. Serum elafin levels. (C) Serum leptin levels. (D) Serum IFNγ and IL-1β levels. (E) Daily food consumption. (F) Change in fat mass. (G) Change in body weight over 14 days. (H) Fasting blood glucose levels. Each group consists of 8 mice.

Series [3] relates to primary human intestinal fibroblasts from CD patients. Nature of the series: Elafin exposure of primary human intestinal fibroblasts from CD patients (Example 1). It counts as cell-based. The conditions noted are these: elafin 24 hours. The procedure:
FIG. 6. Elafin promotes fibrogenesis in human colonic fibroblasts. (A) The human colonic CCD-18Co fibroblasts were incubated with 100 μl/ml (10%) of human sera from normal, stricturing CD, and non-stricturing CD patients in serum-free DMEM for 24 hours. (B) The human colonic CCD-18Co fibroblasts were incubated with 100 μl/ml (10%) of human sera from high elafin CD group (>8000 pg/ml) and low elafin CD group (<8000 pg/ml) in serum-free DMEM for 24 hours. (C) Serum-starved CCD-18Co fibroblasts were pretreated with 15 μg/ml of anti-elafin neutralizing antibody or control antibody for 30 minutes, followed by exposure to (100 μl/ml) human sera from normal and stricturing CD patients for 24 hours. Six serum donors per group. […] Pro-COL1A1 protein levels in cell lysates were determined by ELISA. (E) Serum-starved primary human intestinal fibroblasts from CD patients were exposed to elafin for 24 hours. mRNA expression was determined by real-time RT-PCR. […]
Total RNA was isolated by an RNeasy kit (#74104, Qiagen) and reverse transcribed into cDNA by a high-capacity cDNA RT kit (#4368813, ThermoFisher). Quantitative PCR reactions were run with Fast Universal PCR master mix (#4352042, ThermoFisher) in a Bio-Rad CFX384 system. […] Relative mRNA quantification was performed by comparing test groups and normal control group, after normalization with endogenous control gene human 18S (Hs99999901_s1).

For series [4], the system named is SAMP1/YitFc mice. Nature of the series: Spontaneous ileal fibrosis in SAMP1/YitFc mice. The conditions noted are these: SAMP1/YitFc model. The class given is in vivo. The procedure:
Eight-week-old male and female SAMP1/YitFc mice (#009355) and normal AKR strain control mice (#000648) were purchased from Jackson Laboratories. SAMP1/YitFc mice developed spontaneous ileal inflammation and fibrosis at 40 weeks of age.
Some groups were treated with antibiotics mixture in drinking water ad libitum from 10 to 42 weeks of age. Others received a single intraperitoneal injection (1×10^7 infectious units/mouse) of either control lentivirus or elafin-expressing lentivirus (RC203136L1V, Origene) at 40-weeks of age. Ileal tissues were collected for analysis two weeks after the lentiviral injection.
H&E and Masson Trichrome (MT) staining were performed as described previously. Microphotographs were recorded at multiple locations and scored by two investigators blindly. Intestinal injuries were scored (0-12). The severity of intestinal fibrosis was assessed by MT staining and scored (0-3). ZEB1 immunohistochemistry was performed using an anti-ZEB1 antibody (HPA027524, Sigma).
as §1

For the substance “Elafin: small (6 kDa) human elastase-specific protease inhibitor and antimicrobial peptide; active form SEQ ID NO: 2 (AQEPVKGPVSTKPGSCPIILIRCAMLNPPNRCLKDTDCPGIKKCCEGSCGMACFVPQ; listed as Homo sapiens)”, the overall disease activity in series [1] was determined as 29%; in series [4], 7%. Also, the half-life in circulation in series [2] turned out to be 3 h. Further, in series [3], the “collagen (COL3A1 and COL1A2), ACTA2 and TGF-b1 mRNA expression” value is recorded as “increased”.
